In PMC5890618, “Structural and Functional Insights into Bacillus subtilis Sigma Factor Inhibitor, CsfB” (Structure(London, England:1993), 2018):

T1: σ^G (recombinant full-length sigma factor G, residues 1-260) (Bacillus subtilis, UniProt P19940 1-260)
T1 construct: Cloned into pET-46; also called sigma G; SigG; source: E. coli BL21(DE3)pLysS, purified (HisTrap Ni Sepharose, Superdex75 SEC)
T1 sequence (looked up): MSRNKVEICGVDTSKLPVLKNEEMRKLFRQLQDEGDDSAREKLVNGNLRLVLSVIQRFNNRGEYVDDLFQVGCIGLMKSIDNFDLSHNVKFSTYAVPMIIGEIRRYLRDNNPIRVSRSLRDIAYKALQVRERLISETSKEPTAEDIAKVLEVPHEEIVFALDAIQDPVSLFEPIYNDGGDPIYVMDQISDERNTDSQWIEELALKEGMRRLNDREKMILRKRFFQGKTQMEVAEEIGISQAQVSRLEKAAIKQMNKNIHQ

B1: CsfB^A48E (full-length CsfB variant A48E, residues 1-64) (natural protein, Bacillus subtilis, UniProt P37534 1-64, looked up)
chain: MDETVKLNHTCVICDQEKNRGIHLYTKFICLDCERKVISTSTSDPDYEFYVKKLKSIHTPPLYS
notes: Anti-sigma factor CsfB (also called Gin), Bacillus subtilis strain PY79, full length, residues 1-64, with A48E at the known cleavage point; Made by site-directed mutagenesis of pNIC28-CsfB; The His-tag was removed with TEV 'when required'; 15N-labelled for the NMR titrations; also called Gin A48E; source: E. coli BL21(DE3)pLysS, purified (HisTrap Ni Sepharose, Superdex75 SEC)
B2: CsfB^1-48 (truncated wild-type CsfB, stable degradation product, residues 1-48) (domain or fragment, Bacillus subtilis, UniProt P37534 1-48, looked up)
chain: MDETVKLNHTCVICDQEKNRGIHLYTKFICLDCERKVISTSTSDPDYA
notes: Produced as N-terminally histidine-tagged full-length CsfB that degraded to 1-48; Symmetrical homodimer by NMR; also called cleaved CsfB; truncated variant; source: E. coli BL21(DE3)pLysS, purified (HisTrap Ni Sepharose, Superdex75 SEC); arises by degradation of recombinant full-length CsfB
B3: σ^E (truncated sigma factor E, residues 17-239, lacking the N-terminal membrane-anchored pro-sequence) (domain or fragment, Bacillus subtilis, UniProt P06222 17-239, looked up)
chain: MKLGLKSDEVYYIGGSEALPPPLSKDEEQVLLMKLPNGDQAARAILIERNLRLVVYIARKFENTGINIEDLISIGTIGLIKAVNTFNPEKKIKLATYASRCIENEILMYLRRNNKIRSEVSFDEPLNIDWDGNELLLSDVLGTDDDIITKDIEANVDKKLLKKALEQLNEREKQIMELRFGLVGEEEKTQKDVADMMGISQSYISRLEKRIIKRLRKEFNKMV
notes: Cloned into pET28-TxrA; The tag was removed with TEV 'when required'; also called sigma E; SigE; source: E. coli BL21(DE3)pLysS, purified (HisTrap Ni Sepharose, Superdex75 SEC)

Legend:
[1] = molecular target: B3; experiment: ITC; cell 60 uM CsfB^A48E, syringe 395 uM σ^E; 25°C; 19 injections of 2 ul; 50 mM HEPES pH 7.5, 150 mM KCl, 0.5 mM TCEP; fitted assuming 1:1 stoichiometry; conditions: both partners purified
[2] = molecular target: T1, σ^G (recombinant full-length sigma …); experiment: NMR titration; 15N-labelled CsfB (100 uM for CsfB^A48E) titrated with unlabelled sigma factor up to 1:2 molar equivalents; 1H-15N SOFAST-HMQC; 298 K; 50 mM HEPES pH 7.5, 150 mM KCl, 0.5 mM TCEP; conditions: both partners purified
[3] = molecular target: the molecule itself; experiment: NMR solution structure; CsfB 1-48 dimer, >500 uM, 303 K, 50 mM HEPES pH 7.5, 150 mM KCl, 0.5 mM TCEP; intermolecular NOEs from 12C-filtered, 13C-edited NOESY on a mixed labelled/unlabelled dimer; ARIA2.3 with C2 symmetry
[4] = molecular target: B1; experiment: ITC; cell 60 uM CsfB^A48E, syringe 395 uM σ^E; 25°C; 19 injections of 2 ul; 50 mM HEPES pH 7.5, 150 mM KCl, 0.5 mM TCEP; fitted assuming 1:1 stoichiometry; conditions: both partners purified

B1
Kd [1]: 12.5 ± 2.4 nM | binding result [2]: binds

B2
stoichiometry N [3]: 2

B3
dH [4]: -8.04 ± 0.04 kcal/mol | stoichiometry N [4]: 1.01 sites
